Tests used:
[1] = 10-11 d drug culture, PIPLC, anti-CD59 flow cytometry; details: glycan changed form; control: untreated HEK293FF6 cells
[2] = PIPLC treatment, anti-CD59 flow cytometry; details: glycan changed form

B1: CD59: DMJ (protein)
parent chain: MGIQGGSVLFGLLLVLAVFCHSGHSLQCYNCPNPTADCKTAVNCSSDFDACLITKAGLQVYNKCWKFEHCNFNDVTTRLRENELTYYCCKKDLCNFNEQLENGGTSLSEKTVLLLVTPFLAAAWSLHP
other: PIPLC resistance of surface CD59 (GPI-inositol acylation) [1]: no change

B2: CD59: KIF (protein)
parent chain: B1 parent chain
other: PIPLC resistance of surface CD59 (GPI-inositol acylation) [1]: no change

B3: CD59: sgALG6 in MOGS-KO (protein)
parent chain: B1 parent chain
other: PIPLC resistance of surface CD59 (GPI-inositol acylation) ([2]; control: MOGS-KO cells): decreases

B4: CD59: sgALG8 in MOGS-KO (protein)
parent chain: B1 parent chain
other: PIPLC resistance of surface CD59 (GPI-inositol acylation) ([2]; control: MOGS-KO cells): decreases

B5: CD59: GANAB-KO (protein)
parent chain: B1 parent chain
other: PIPLC resistance of surface CD59 (GPI-inositol acylation) ([2]; control: WT HEK293 cells): increases

B6: CD59: DNJ (protein)
parent chain: B1 parent chain
other: PIPLC resistance of surface CD59 (GPI-inositol acylation) [1]: increases

— paper PMC5800811
